Biological target: PARP-1 (commercial) (Homo sapiens, UniProt P09874 SEQ:1-1013)
Experiment: EMSA; 1.5 ug purified PARP-1, no shift
Details: tags: Trevigen; label: 32P
Description: To evaluate whether purified PARP-1 is associated with NRBS, Applicants performed EMSA using commercial PARP-1 and radiolabeled Probe A (FIG. 18, lane 3). […] As PARP-1 was reported to bind to DNA using its N-terminal domain, the N-terminal DNA-binding domain (1-372 aa) from human PARP-1 were stably transfected into KAK-1 cells. Nuclear extract from multiple pooled positive clones from this transfection or a single positive clone from the same transfection experiment were incubated with labeled Probe A and subjected to EMSA (FIG. 18; lanes 6 & 10, respectively). The gel-shift bands produced were not appreciably different from those produced by nuclear extract from KAK-1 cells transfected with the empty vector (pCR3.1; lane 8) or those produced by parental KAK-1 nuclear extract (lane 2). Addition of cold Probe A, in each case, competed similarly against their respective matched lanes (lanes 3, 7, 9, & 11).

Sequence of PARP-1 (commercial) (P09874 2-1014): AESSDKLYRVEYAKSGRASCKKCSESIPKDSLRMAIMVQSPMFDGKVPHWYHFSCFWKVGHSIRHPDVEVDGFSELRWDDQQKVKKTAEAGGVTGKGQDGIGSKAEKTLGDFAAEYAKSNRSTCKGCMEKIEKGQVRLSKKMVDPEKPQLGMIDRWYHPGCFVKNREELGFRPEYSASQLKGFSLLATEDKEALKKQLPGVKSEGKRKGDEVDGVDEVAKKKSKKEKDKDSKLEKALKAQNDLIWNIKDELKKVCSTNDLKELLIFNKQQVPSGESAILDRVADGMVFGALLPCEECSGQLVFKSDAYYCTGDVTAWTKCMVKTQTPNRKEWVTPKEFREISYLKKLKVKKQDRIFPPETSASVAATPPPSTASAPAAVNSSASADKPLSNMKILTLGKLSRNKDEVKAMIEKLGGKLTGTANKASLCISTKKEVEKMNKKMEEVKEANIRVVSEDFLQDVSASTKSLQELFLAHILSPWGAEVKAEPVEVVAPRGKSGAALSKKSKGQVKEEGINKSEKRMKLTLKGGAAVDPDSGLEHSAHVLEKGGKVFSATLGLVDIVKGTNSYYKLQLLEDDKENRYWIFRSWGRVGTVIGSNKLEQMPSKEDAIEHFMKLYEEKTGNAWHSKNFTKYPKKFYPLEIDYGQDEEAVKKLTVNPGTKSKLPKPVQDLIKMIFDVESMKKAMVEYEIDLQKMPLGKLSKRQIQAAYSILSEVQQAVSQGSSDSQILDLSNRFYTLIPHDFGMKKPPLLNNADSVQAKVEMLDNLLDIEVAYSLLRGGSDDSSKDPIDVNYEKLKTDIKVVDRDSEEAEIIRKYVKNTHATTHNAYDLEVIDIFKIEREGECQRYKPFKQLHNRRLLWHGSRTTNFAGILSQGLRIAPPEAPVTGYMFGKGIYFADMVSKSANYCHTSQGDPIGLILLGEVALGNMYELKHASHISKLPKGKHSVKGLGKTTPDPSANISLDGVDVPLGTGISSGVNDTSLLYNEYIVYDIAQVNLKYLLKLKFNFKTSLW

B1: Probe A (-684 to -565 hNIS) (dsDNA)
DNA 1: AAGCAGGCTGTGCAGGCTTGGATAGTGACATGCCCTTTTTGAGCCTCAATTTCCCCACCTGTCAACAGCAGACAGTGACAGCTGTGATCAGGGGATCACAGTGCATGGGGATGGGTGTGT
DNA 2: ACACACCCATCCCCATGCACTGTGATCCCCTGATCACAGCTGTCACTGTCTGCTGTTGACAGGTGGGGAAATTGAGGCTCAAAAAGGGCATGTCACTATCCAAGCCTGCACAGCCTGCTT
Question: Does B1 bind?
Answer: no binding
